Laboratory results reported in paper PMC5228053.

Biological target: pyruvate kinase type M2 (PKM2) (human (endogenous in A549)) (UniProt P14618)
Assay: cross-linking; A549 cells in PBS (2 mg/ml protein), EDC 10 mM / sulfo-NHS 5 mM, room temperature, quenched with 20 mM DTT, then western blot for PKM2; cells treated with pTyr peptide, FBP or serine

Sequence of pyruvate kinase type M2 (PKM2), P14618 1-531 (enzyme; other documents disagree on this pair) (P14618 whole entry): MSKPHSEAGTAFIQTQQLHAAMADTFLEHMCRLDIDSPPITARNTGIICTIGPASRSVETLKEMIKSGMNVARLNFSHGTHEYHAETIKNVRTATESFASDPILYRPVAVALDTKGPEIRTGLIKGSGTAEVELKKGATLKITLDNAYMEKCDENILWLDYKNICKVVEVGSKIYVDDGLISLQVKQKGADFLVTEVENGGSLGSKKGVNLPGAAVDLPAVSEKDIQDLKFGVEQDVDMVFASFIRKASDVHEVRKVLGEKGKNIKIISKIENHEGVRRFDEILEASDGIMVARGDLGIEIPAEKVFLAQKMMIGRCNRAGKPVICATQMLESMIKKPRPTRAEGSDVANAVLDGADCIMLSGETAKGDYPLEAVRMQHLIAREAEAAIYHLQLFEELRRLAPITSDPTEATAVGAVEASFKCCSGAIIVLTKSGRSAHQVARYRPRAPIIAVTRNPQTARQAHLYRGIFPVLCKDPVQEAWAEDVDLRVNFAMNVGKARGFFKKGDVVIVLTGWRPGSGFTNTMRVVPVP

- stoichiometry N: 2
Substance: pyruvate kinase type M2 (PKM2), P14618 1-531 (enzyme; other documents disagree on this pair)
